According to patent publication US20180043006A1 (UNIVERSITY OF VIRGINIA PATENT FOUNDATION, published 2018):

Tests used:
[1] = biological target: T1, HLA-DR molecule DRB1*0101 (human); test: peptide displayed on HLA-DR tetramer (TGEM)
T1 construct: Used as a PE-conjugated peptide/MHCII tetramer assembled by a cited method

[2] = biological target: T2, HLA-DR molecule DRB1*0701 (human); test: peptide displayed on HLA-DR tetramer (TGEM)
T2 construct: Used as a PE-conjugated peptide/MHCII tetramer assembled by a cited method

[3] = biological target: T3, HLA-DR molecule DRB1*0401 (human); test: peptide displayed on HLA-DR tetramer, ex vivo staining of PBMCs
T3 construct: Used as a PE-conjugated peptide/MHCII tetramer assembled by a cited method

[4] = biological target: T3, HLA-DR molecule DRB1*0401; test: peptide displayed on HLA-DR tetramer, ex vivo staining

B1: RV-A16 VP1P23 peptide epitope (peptide)
peptide: PRFSLPFLSIASAYYMFYDG
notes: 20mer from the overlapping RV-A16 VP1 peptide library, loaded on HLA-DR tetramers
B1: binds [1]; binds [2].

PHQFINLRSNNSATLIVPYV [RV-A16 VP2P24 peptide epitope]: binds [1].

B2: RV-A16 VP2P21 peptide epitope (peptide)
peptide: NEKQPSDDNWLNFDGTLLGN
notes: 20mer from the overlapping RV-A16 VP2 peptide library, loaded on HLA-DR tetramers
B2: binds [3].

B3: RV-A39 VP2169-188 peptide epitope (peptide)
peptide: SDDNWLNFDGTLLGNLLIFP
notes: Residues 169-188 of RV-A39 VP2; also called RV-A39 VP2 peptide
B3: binds [4].

AQVRRKFEMFTYVRFDSEIT [RV-A39 VP1105-124 peptide epitope]: binds [4].
